Reference: US6958321B2, “Isolation, characterization, cloning and use of a mushroom lectin” (The Regents of the University of Michigan, priority 2001, dated 2005)

Experiments:
Assay in all cases: Agglutination of cells by Marasmius oreades lectin
Type in all cases: cell-based
[1] = test system: Human O erythrocytes; settings: human type O erythrocytes
Method: (§1) In some embodiments, blood group specificity of MOA is determined in hemagglutination assays (see Examples below). Briefly, formaldehyde-treated erythrocytes in V-well microtitre plates are used in a protocol as described in Mo et al. [J. Biol. Chem 275:10623 (2000)], herein incorporated by reference. […] Example 3, below, presents the data for agglutination activity against a variety of cell types. […] Biochemistry 22: 5290 (1983)].
(§2) Hemagglutination assays were carried out using formaldehyde-treated erythrocytes in V-well microtitre plates as described by Mo et al. [J. Biol. Chem 275:10623 (2000)], herein incorporated by reference. Titres were recorded as the greatest dilution of the lectin solution yielding visible agglutination. Agglutination of Ehrlich ascites tumor cells (grown in in vitro culture) was observed microscopically.
(§3) Hemagglutination activity was unchanged by extensive dialysis of the lectin and assay in metal-free buffer containing EDTA, indicating the absence of a divatent metal ion requirement. As noted in Example 2, subsequent assays and purifications routinely used metal-free buffers containing EDTA.

[2] = test system: Cultured Ehrlich ascites tumor cells
Method: as §1, §2, §3

[3] = test system: Human B erythrocytes
Method: as §1, §2, §3

[4] = test system: Human A erythrocytes; settings: human type A erythrocytes
Method: as §1, §2, §3

B1: MOA: M. oreades lectin (agglutinin) with binding specificity for Galα1,3Gal; single polypeptide of approximately 33 kDa (protein)
chain: MSLRRGIYHIENAGVPSAIDLKDGSSSDGTPIVGWQFTPDTINWHQLWLAEPIPNVADTFTLCNLFSGTYMDLYNGSSEAGTAVNGWQGTAFTTNPHQLWTIKKSSDGTSYKIQNYGSKTFVDLVNGDSSDGAKIAGWTGTWDEGNPHQKWYFNRMSVSSAEAQAAIARNPHIHGTYRGYILDGEYLVLPNATFTQIWKDSGLPGSKWREQIYDCDDFAIAMKAAVGKWGADSWKANGFAIFCGVMLGVNKAGDAAHAYNFTLTKDHADIVFFEPQNGGYLNDIGYDSYMAFY
hemagglutination activity [1]: very little activity
agglutination [2]: readily agglutinated
hemagglutination activity [3]: Strong
hemagglutination activity [4]: very little activity
